Assays:
PDGF-AB (Homo sapiens) = PDGF-AB (Homo sapiens) (UniProt P04085+P01127); test: filter; details: 2'-F pyrimidines; +/-7; random pool
[1] = target: T1, KGF (hKGF) (Homo sapiens) (UniProt P21781); test: filter
T1 sequence: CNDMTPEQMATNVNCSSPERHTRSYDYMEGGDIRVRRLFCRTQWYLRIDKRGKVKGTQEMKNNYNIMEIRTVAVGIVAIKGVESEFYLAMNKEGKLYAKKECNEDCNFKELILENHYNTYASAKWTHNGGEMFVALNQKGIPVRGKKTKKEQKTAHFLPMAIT

[2] = target: T1, KGF (hKGF) (Homo sapiens); test: FP; details: 2'-F pyrimidines; method is nitrocellulose filter binding; DPBS, 37 C
[3] = target: T1, KGF (hKGF) (Homo sapiens); test: competition; details: 2'-F pyrimidines, PC-3 cells

Sequence of PDGF-AB (Homo sapiens) (P01127 82-190, chain 2 of 2, other chains not shown): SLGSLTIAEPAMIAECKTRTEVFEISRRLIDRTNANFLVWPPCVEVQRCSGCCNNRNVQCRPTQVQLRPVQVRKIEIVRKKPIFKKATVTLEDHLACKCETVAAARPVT

Sequence: GGGAGACAAGAAUAACGCUCAANNNNNNNNNNNNNNNNNNNNNNNNNNNNNNNNNNNNNNNNNNNNNNNNNNUUCGACAGGAGGCUCACAACAGGC [random 2'-F RNA 50N]
- Kd (PDGF-AB (Homo sapiens)): 35 nM

Sequence: GGGAGGACGAUGCGGAACGGAGAUGUCCCCUCAAMAUUUACCGUCUCCGUUUGCGCCCCAGACGACUCGCCCGA [31F]
- Kd ([1]; 2'-F pyrimidines, DPBS, 37 C): 1 nM

Sequence: GGGAGGACGAUGCGGCAANNNNNNNCUCUCUCCUGGCGUUCCGCAACCCGCCCCCAGACGACUCGCCCGA [19F]
- Kd ([1]; 2'-F pyrimidines, second column 0.94-2.57, DPBS, 37 C): 1.6 nM

Sequence: GGGAGGACGAUGCGGCAGUCUCCCUAGGUUUCAUCUCUGCAGCAUUCCGGGGUNCCAGACGACUCGCCCGA [51F]
- Kd ([1]; 2'-F pyrimidines, DPBS, 37 C): 1.27 nM

Sequence: GGGAGGACGAUGCGGGAAUUAACAGGGCCAGAAUUCUCAUCUNNCUUCCCGUGACCCAGACGACUCGCCCGA [12F]
- Kd [2]: 1.38 nM

Sequence: GGGAGGACGAUGCGGGAAUUCCCAGCGCUUGACUGAUACAAACNUUCCCGUGCCCCAGACGACUCGCCCGA [16F]
- Kd ([1]; 2'-F pyrimidines, biphasic, high affinity 49%, Kd2 3.39 nM): 0.83 nM

Sequence: GGGAGGACGAUGCGGGGACAAWYAGCGGUGUCUUUUCAUUUNKAUCCUCCGACRUCCCAGACGACUCGCCCGA [56F]
- Kd ([1]; 2'-F pyrimidines, biphasic, high affinity 32%, Kd2 3.00 nM, PC-3 Ki 0.16 nM): 0.07 nM
- IC50 [3]: 1 nM
- Ki ([3]; 27.4 nM on NIH3T3/FGFR-2): 0.16 nM

Sequence: GGGAGGACGAUGCGGNGACUGAUUUUUCCUUGNCAGUGUAAUUUCCUGGCUGCCCCAGACGACUCGCCCGA [38F]
- Kd ([1]; 2'-F pyrimidines, DPBS, 37 C, PC-3 Ki 0.22 nM): 0.33 nM
- IC50 [3]: 0.6 nM
- Ki ([3]; 20 nM on NIH3T3/FGFR-2): 0.22 nM

Sequence: GGGAGGACGAUGCGGNNNNNNNNNNNNNNNNNNNNNNNNNNNNNNNNNNNNNNNNCAGACGACUCGCCCGA [random 2'-F RNA 40N7]
- Kd ([1]; 2'-F pyrimidines, random pool): 30 nM

Sequence: GGGAGGACGAUGCGGNNNNNNNNNNNNNNNNNNNNNNNNNNNNNNNNNNNNNNNNCAGACGACUCGCCCGA [random 2'-NH2 RNA 40N7]
- Kd ([1]; 2'-NH2 pyrimidines, random pool): 30 nM

Sequence: GGGAGGACGAUGCGGUCGAGUGUUCUCCUUCGGUAACUAUUNNNNAUUUCGUGCCCAGACGACUCGCCCGA [44F]
- Kd ([1]; 2'-F pyrimidines, DPBS, 37 C): 1.32 nM
